Key:
human CD47 [1] = biological target: T1, human CD47 (human, UniProt Q08722 19-323); test: flow cytometry on CD47 tf CHO-S cells, PE goat anti-human IgG
T1 construct: whole, on cells; also called CD47 tf CHO-S; endogenous CD47 on FaDu and NCI-H460 cells
Description: To determine the whole cell binding ability of the HCB301_v5 proteins to CD47 expressed on cell surface, tf CHO-S cells expressing human CD47 (CD47 tf CHO-S) were used as target cells. […] The samples were analyzed using a CytoFLEX flow cytometer (Beckman Coulter Inc., CA, USA).
The EC50 values were determined according to the binding curves.

human PD-L1 [2] = biological target: T2, human PD-L1 (human, UniProt Q9NZQ7 19-290); test: flow cytometry on PD-L1 tf CHO-S cells, PE goat anti-human IgG; EC50 from the table under the curves
T2 construct: whole, on cells; For the PD-L1 tf DLD1 cells the species of PD-L1 is not restated; also called PD-L1 tf CHO-S; PD-L1 tf DLD1
Description: (§1) The samples were analyzed using a CytoFLEX flow cytometer (Beckman Coulter Inc., CA, USA).
The EC50 values were also determined according to the binding curves.

human PD-L1 [3] = biological target: T2, human PD-L1; test: flow cytometry on PD-L1 tf DLD1 cells in a 1:1 mixture with DLD1 cells, PE goat anti-human IgG [D]
Description: The selective binding ability of HCB301_v5 proteins to PD-L1-expressing cells was determined as follows. DLD1 cells were labeled with CellTrace™ CFSE (Thermo, Cat #: C34554) and tf DLD1 cells expressing PD-L1 (PD-L1 tf DLD1) were labeled with Celltrace™ (Thermo, Cat #: C34557) according to the instructions provided by manufacturer. […] The samples were analyzed using a CytoFLEX flow cytometer (Beckman Coulter Inc., CA, USA). Afterwards, the cells were gated according to PE signals to calculate the percentages of different cell types by Kaluza analysis software (Beckman Coulter Inc.).

human PD-L1 [4] = biological target: T2, human PD-L1; test: flow cytometry competition on PD-L1 tf CHO-S cells against a fixed concentration of biotinylated PD1_G4, streptavidin-PE; IC50 from the table under the curves
human CD47 [5] = biological target: T1, human CD47; test: flow cytometry on human platelets (CD47 on platelets per paragraph 5), PE goat anti-human IgG
Description: as §1

T2 sequence (Q9NZQ7 19-290): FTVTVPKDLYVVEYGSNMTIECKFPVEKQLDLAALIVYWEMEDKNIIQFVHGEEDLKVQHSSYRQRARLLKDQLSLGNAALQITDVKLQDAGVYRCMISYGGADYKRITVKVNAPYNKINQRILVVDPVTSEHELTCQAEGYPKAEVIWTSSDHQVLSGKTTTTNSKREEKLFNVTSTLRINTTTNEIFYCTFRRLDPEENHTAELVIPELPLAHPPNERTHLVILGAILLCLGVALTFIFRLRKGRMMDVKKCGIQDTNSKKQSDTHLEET

binding result (human CD47 [1])	EC50 (human PD-L1 [2])	EC50 (read off the curve) (human PD-L1 [3])	IC50 (human PD-L1 [4])	binding result (human CD47 [5])	Binder
no binding (tested: 500 nM)	0.22 nM	~0.8 nM	0.392 nM	–	anti-PD-L1 VHH (2H4) (VHH) VHH: QVQLVESGGGVVQPGRSLRLSCAASGGPFMSYAMGWFRQAPGKEREFVAAIRWNGISTFYADSVKGRFTISRDNSKNTLYLQMNSLRAEDTAVYYCAAAQTIVTVPENYHFDYWGQGTQVTVSS
–	–	–	–	no binding (tested: 20 nM)	h1G4 (antibody, human IgG4 S228P, kappa, V domains shown, also called negative control) VH: QVQLVESGGGLVKPGGSLRLSCAASGFTFSNYGMSWIRQAPGKGLEWVSTISGGGSNIYYADSVKGRFTISRDNAKNSLYLQMNSLRAEDTAVYYCVSYYYGIDFWGQGTSVTVSS VL: DIQMTQSPSSLSASVGDRVTITCKASQDVTTAVAWYQQKPGKAPKLLIYWASTRHTGVPSRFSGSGSGTDFTLTISSLQPEDFATYYCQQHYTIPWTFGGGTKLEIKR
